Experimental data published in PMC6144786, “DNA binding with a minimal scaffold: structure–function analysis of Lig E DNA ligases” (Nucleic Acids Research, 2018).

What was measured:
[1] = target: T1, Ame-Lig (Alteromonas mediterranea, UniProt Z9I348I3L4); test: molecular beacon ligation assay; type: biochemical; conditions: 0.1 mM ATP, 300 nM nicked DNA substrate, 10 mM MgCl2, pH 8.0, 30 °C
T1 construct: predicted mature form, signal peptide omitted (cleavage between 21 and 22), codon-optimised synthetic gene in pDEST17; monomer in the asymmetric unit with nicked DNA
T1 sequence (Z9I348I3L4 2-297): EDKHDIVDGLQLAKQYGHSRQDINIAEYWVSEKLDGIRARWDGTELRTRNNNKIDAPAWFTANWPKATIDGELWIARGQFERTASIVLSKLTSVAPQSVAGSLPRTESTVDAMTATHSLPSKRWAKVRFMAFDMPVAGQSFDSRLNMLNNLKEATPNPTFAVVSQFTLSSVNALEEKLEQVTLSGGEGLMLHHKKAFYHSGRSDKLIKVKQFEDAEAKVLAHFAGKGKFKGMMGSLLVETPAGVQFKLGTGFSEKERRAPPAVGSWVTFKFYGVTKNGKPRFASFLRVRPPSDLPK

[2] = system: Psy-Lig S215A; test: MST; conditions: 5' phosphate on S24 at nick, MST: 50 mM Tris, 100 mM NaCl, 1 mM DTT, 5 mM EDTA, 1 mM ATP, 0.5% Tween, 40 nM DNA, incubated 4 C, read 25 C, EMSA: 50 mM Tris pH 8.0, 50 mM NaCl, 0.
[3] = system: Psy-Lig K193A; test: MST; conditions: 5' phosphate on S24 at nick, MST: 50 mM Tris, 100 mM NaCl, 1 mM DTT, 5 mM EDTA, 1 mM ATP, 0.5% Tween, 40 nM DNA, incubated 4 C, read 25 C, EMSA: 50 mM Tris pH 8.0, 50 mM NaCl, 0.
[4] = system: Psy-Lig WT (Lig E DNA ligase); test: MST; conditions: 5' phosphate on S24 at nick, MST: 50 mM Tris, 100 mM NaCl, 1 mM DTT, 5 mM EDTA, 1 mM ATP, 0.5% Tween, 40 nM DNA, incubated 4 C, read 25 C, EMSA: 50 mM Tris pH 8.0, 50 mM NaCl, 0.
[5] = system: Psy-Lig R69A; test: MST; conditions: 5' phosphate on S24 at nick, MST: 50 mM Tris, 100 mM NaCl, 1 mM DTT, 5 mM EDTA, 1 mM ATP, 0.5% Tween, 40 nM DNA, incubated 4 C, read 25 C, EMSA: 50 mM Tris pH 8.0, 50 mM NaCl, 0.
[6] = system: Psy-Lig K212A; test: MST; conditions: 5' phosphate on S24 at nick, MST: 50 mM Tris, 100 mM NaCl, 1 mM DTT, 5 mM EDTA, 1 mM ATP, 0.5% Tween, 40 nM DNA, incubated 4 C, read 25 C, EMSA: 50 mM Tris pH 8.0, 50 mM NaCl, 0.
[7] = system: Psy-Lig K25A; test: MST; conditions: 5' phosphate on S24 at nick, MST: 50 mM Tris, 100 mM NaCl, 1 mM DTT, 5 mM EDTA, 1 mM ATP, 0.5% Tween, 40 nM DNA, incubated 4 C, read 25 C, EMSA: 50 mM Tris pH 8.0, 50 mM NaCl, 0.
[8] = system: Psy-Lig R80A; test: MST; conditions: 5' phosphate on S24 at nick, MST: 50 mM Tris, 100 mM NaCl, 1 mM DTT, 5 mM EDTA, 1 mM ATP, 0.5% Tween, 40 nM DNA, incubated 4 C, read 25 C, EMSA: 50 mM Tris pH 8.0, 50 mM NaCl, 0.
[9] = system: Psy-Lig K176A; test: MST; conditions: 5' phosphate on S24 at nick, MST: 50 mM Tris, 100 mM NaCl, 1 mM DTT, 5 mM EDTA, 1 mM ATP, 0.5% Tween, 40 nM DNA, incubated 4 C, read 25 C, EMSA: 50 mM Tris pH 8.0, 50 mM NaCl, 0.
[10] = system: Psy-Lig N144A; test: MST; conditions: 5' phosphate on S24 at nick, MST: 50 mM Tris, 100 mM NaCl, 1 mM DTT, 5 mM EDTA, 1 mM ATP, 0.5% Tween, 40 nM DNA, incubated 4 C, read 25 C, EMSA: 50 mM Tris pH 8.0, 50 mM NaCl, 0.

Row | Compound | molecular beacon ligation assay [1] | K half [2] | K half [3] | K half [4] | K half [5] | K half [6] | K half [7] | K half [8] | K half [9] | K half [10]
1 | Nc1ncnc2c1ncn2[C@@H]1O[C@H](COP(=O)(O)OP(=O)(O)OP(=O)(O)O)[C@@H](O)[C@H]1O [ATP] | Ligase activity of Ame-Lig and Psy-Lig mutants were measured by molecular beacon (MB) assay |  |  |  |  |  |  |  |  | 
2 | AGGCCATGGCTGATATCGGA / TCCGAATTCGAGCTCCGTCG / CGACGGAGCTCGAATTCGGATCCGATATCAGCCATGGCCT [nicked 40-mer (MST)] |  | 1740 nM | 2550 nM | 980 nM | 3.08 µM | 7.1 µM | 3.3 µM | 3.62 µM | 5.17 µM | 2450 nM
